{"source": "patent US6989256", "about": "(UNIVERSITY OF MEDICINE AND DENTISTRY OF NEW JERSEY, dated 2006)", "binders": {"B1": {"name": "GST-eRF1 (other, yeast (S. cerevisiae), UniProt P12385 1-437, looked up)", "chain": "MDNEVEKNIEIWKVKKLVQSLEKARGNGTSMISLVIPPKGQIPLYQKMLTDEYGTASNIKSRVNRLSVLSAITSTQQKLKLYNTLPKNGLVLYCGDIITEDGKEKKVTFDIEPYKPINTSLYLCDNKFHTEVLSELLQADDKFGFIVMDGQGTLFGSVSGNTRTVLHKFTVDLPKKHGRGGQSALRFARLREEKRHNYVRKVAEVAVQNFITNDKVNVKGLILAGSADFKTDLAKSELFDPRLACKVISIVDVSYGGENGFNQAIELSAEALANVKYVQEKKLLEAYFDEISQDTGKFCYGIDDTLKALDLGAVEKLIVFENLETIRYTFKDAEDNEVIKFAEPEAKDKSFAIDKATGQEMDVVSEEPLIEWLAANYKNFGATLEFITDKSSEGAQFVTGFGGIGAMLRYKVNFEQLVDESEDEYYDEDEGSDYDFI", "notes": "also called GST-RF1; GST-RF; not shown: glutathione-S-transferase (GST) from vector pGEX2T"}}, "target": "T1, FLAG epitope-tagged Mtt1p (yeast (S. cerevisiae), UniProt P32644 1-1121, limits assumed)", "T1 construct": "Used as a yeast cytoplasmic extract, not as purified protein; also called Flag-Mtt1p; Modulator of Translation Termination", "T1 sequence (looked up)": "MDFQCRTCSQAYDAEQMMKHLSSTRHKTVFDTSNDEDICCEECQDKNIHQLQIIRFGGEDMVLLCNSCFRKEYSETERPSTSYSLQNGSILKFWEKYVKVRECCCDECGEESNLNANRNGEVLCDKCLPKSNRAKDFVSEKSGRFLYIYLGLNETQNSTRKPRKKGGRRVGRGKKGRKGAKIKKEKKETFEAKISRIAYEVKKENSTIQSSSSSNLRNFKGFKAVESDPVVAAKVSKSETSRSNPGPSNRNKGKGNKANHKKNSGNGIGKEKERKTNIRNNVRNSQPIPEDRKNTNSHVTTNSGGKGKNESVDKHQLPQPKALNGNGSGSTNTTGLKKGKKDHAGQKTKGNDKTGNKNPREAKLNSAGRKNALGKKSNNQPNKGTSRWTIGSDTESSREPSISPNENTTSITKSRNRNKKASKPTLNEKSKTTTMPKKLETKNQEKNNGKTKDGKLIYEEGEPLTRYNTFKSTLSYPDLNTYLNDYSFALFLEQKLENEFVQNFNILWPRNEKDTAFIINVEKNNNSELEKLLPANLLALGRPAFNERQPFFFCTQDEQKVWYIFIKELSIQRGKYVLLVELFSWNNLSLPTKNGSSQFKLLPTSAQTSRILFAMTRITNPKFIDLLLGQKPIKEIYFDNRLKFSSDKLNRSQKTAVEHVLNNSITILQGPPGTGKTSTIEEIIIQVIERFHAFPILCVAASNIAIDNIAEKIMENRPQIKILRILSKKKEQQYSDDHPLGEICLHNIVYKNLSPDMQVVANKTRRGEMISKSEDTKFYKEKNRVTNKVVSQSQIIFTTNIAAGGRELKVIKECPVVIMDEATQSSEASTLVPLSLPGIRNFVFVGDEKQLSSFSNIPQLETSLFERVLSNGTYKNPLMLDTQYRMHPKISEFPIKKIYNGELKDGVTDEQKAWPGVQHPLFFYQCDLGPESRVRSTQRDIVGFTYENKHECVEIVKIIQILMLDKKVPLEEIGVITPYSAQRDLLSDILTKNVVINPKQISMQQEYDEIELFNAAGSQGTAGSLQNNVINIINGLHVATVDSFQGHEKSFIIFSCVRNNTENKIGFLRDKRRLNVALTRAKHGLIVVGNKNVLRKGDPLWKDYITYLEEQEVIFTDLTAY", "assay": "GST pull-down from yeast cytoplasmic extract, anti-FLAG immunoblot", "protocol": "Total RNA was prepared and subjected to RNA blotting analysis, using a probe for CYH2 mRNA. Figure 4: FIG. 4 Mtt1 interacts withe eRF3. Cytoplasmic extracts from a yeast strain BJ3505 transformed with either pG-1 (vector) or pG-1 FLAGMTT1 (Flag-Mtt1p) were prepared in IBTB and incubated with 30 μl GST, GST-eRF1. GST-eRF3, GST-eRF3NM or GST-eRF3C sepharose-protein complexes. The sepharose-protein complexes were washed 2 times in IBTB (see materials and methods), resuspended in SDS-PAGE loading buffer, separated on an 8% SDS-PAGE gel and immunoblotted using anti-FLAG antibody.\nSince deleting the MTT1 gene also promotes nonsense suppression of the tyr7-1 and leu2-2 alleles, Mtt1p also interacts with the peptidyl release factors. To test this, eRF1 and eRF3 were individually expressed in *E. coli* as glutathione-S-transferase (GST) fusion proteins and purified using glutathione sepharose beads. The purified GST-RF (release factor) fusion proteins associated with the glutathione sepharose beads were added to a yeast cytoplasmic extract containing a FLAG epitope-tagged Mtt1p (see Experimental Procedures). Following incubation, the GST-RFs and associated proteins were purified by affinity chromatography and subjected to SDS-PAGE. Immunoblotting was performed and the presence of the Flag-Mtt1p was assayed using an antibody against the FLAG epitope."}
{"binder": "B1", "values": [{"measurement": "binding result", "result": "no binding"}]}
